The values that follow come from PMC11745445 (2024).

B1: LV-MKK3-His-WT (His-labeled wild-type MKK3) in HT-22 cells [not stated] / RAGE (receptor for advanced glycation end products), endogenous in HT-22 cells [mouse (endogenous in HT-22)] (parent complex)
chain 1: MESPAASPPASLPQTKGKSKRKKDLRISCVSKPPVSNPTPPRNLDSRTFITIGDRNFEVEADDLVTISELGRGAYGVVEKVRHAQSGTIMAVKRIRATVNTQEQKRLLMDLDINMRTVDCFYTVTFYGALFREGDVWICMELMDTSLDKFYRKVLEKNMKIPEDILGEIAVSIVRALEHLHSKLSVIHRDVKPSNVLINKEGHVKMCDFGISGYLVDSVAKTMDAGCKPYMAPERINPELNQKGYNVKSDVWSLGITMIEMAILRFPYESWGTPFQQLKQVVEEPSPQLPADQFSPEFVDFTSQCLRKNPAERMSYLELMEHPFFTLHKTKKTDIAAFVKEILGEDS
chain 2: GQNITARIGEPLVLSCKGAPKKPPQQLEWKLNTGRTEAWKVLSPQGGPWDSVARILPNGSLLLPATGIVDEGTFRCRATNRRGKEVKSNYRVRVYQIPGKPEIVDPASELTASVPNKVGTCVSEGSYPAGTLSWHLDGKLLIPDGKETLVKEETRRHPETGLFTLRSELTVIPTQGGTHPTFSCSFSLGLPRRRPLNTAPIQLRVREPGPPEGIQLLVEPEGGIVAPGGTVTLTCAISAQPPPQVHWIKDGAPLPLAPSPVLLLPEVGHEDEGTYSCVATHPSHGPQESPPVSIRVTETGDEGPAEGSVGESGLGTLALALGILGGLGVVALLVGAILWRKRQPRREERKAPESQEDEEERAELNQSEEAEMPENGAGGP

In one experiment the parent is B1. The experiment in a line: co-IP (IP: RAGE, IB: MKK3-His) followed by western blotting, optical density; hippocampus of MKK3-knockdown db/db mice; n = 4 in each group; parent: 3.1; read off a plot.
Consider chain 1 K329A, for which the response was ~1.4 fold change relative to the db/db + MKK3-shRNA group.

Another experiment covers variants of B1. The experiment can be described thus: co-IP (IP: MKK3-His, IB: RAGE) followed by western blotting, optical density; hippocampus of MKK3-knockdown db/db mice; n = 4 in each group; parent: 1.7; read off a plot.
Take chain 1 K329A: the response is ~1.1 fold change relative to the db/db + MKK3-shRNA group.

Another experiment covers variants of B1. The experiment can be described thus: co-IP (IP: MKK3-His, IB: RAGE) followed by western blotting, optical density; MKK3-knockdown HT-22 cells, high-glucose stimulation 24 hours; n = 4 in each group; parent: 4; read off a plot.
chain 1 K329A: the response was ~1.4 fold change relative to the HG + MKK3-shRNA group.

Variants of B1 are the subject of the next experiment. The experiment can be described thus: co-IP (IP: RAGE, IB: MKK3-His) followed by western blotting, optical density; MKK3-knockdown HT-22 cells, high-glucose stimulation 24 hours; n = 4 in each group; parent: 3.4; read off a plot.
chain 1 K329A: the response was ~1.1 fold change relative to the HG + MKK3-shRNA group.
